Laboratory results taken from publication PMC9908889.

Assays:
[1] = target: T1, MORF WH1 (Homo sapiens) (UniProt Q8WYB5); assay: fluorescence polarization; details: EMSA: 20-25 mM Tris-HCl pH 7.5, 20-150 mM NaCl, 0-0.2 mM EDTA, 0-5 mM DTT, 0-20% glycerol, 4 C; NCP197 EMSA: 10 mM Tris, 1 mM EDTA, 10 mM NaCl, 1 mM TCEP; FP: …
T1 sequence: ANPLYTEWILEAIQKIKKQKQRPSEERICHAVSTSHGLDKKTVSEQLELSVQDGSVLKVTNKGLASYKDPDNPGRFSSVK

[2] = target: T2, MORF WH1-WH2 (Homo sapiens) (UniProt Q8WYB5); assay: fluorescence polarization; details: EMSA: 20-25 mM Tris-HCl pH 7.5, 20-150 mM NaCl, 0-0.2 mM EDTA, 0-5 mM DTT, 0-20% glycerol, 4 C; NCP197 EMSA: 10 mM Tris, 1 mM EDTA, 10 mM NaCl, 1 mM TCEP; FP: …
T2 sequence: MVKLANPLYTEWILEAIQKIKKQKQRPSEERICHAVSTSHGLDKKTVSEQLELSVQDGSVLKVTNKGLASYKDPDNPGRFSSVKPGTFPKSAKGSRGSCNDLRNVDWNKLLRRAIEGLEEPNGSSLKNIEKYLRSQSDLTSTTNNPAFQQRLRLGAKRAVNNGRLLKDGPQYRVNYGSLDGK

[3] = test system: MORF WH2 (Homo sapiens); assay: fluorescence polarization; details: EMSA: 20-25 mM Tris-HCl pH 7.5, 20-150 mM NaCl, 0-0.2 mM EDTA, 0-5 mM DTT, 0-20% glycerol, 4 C, NCP197 EMSA: 10 mM Tris, 1 mM EDTA, 10 mM NaCl, 1 mM TCEP, FP: …
[4] = test system: MORF WH2 (Homo sapiens); assay: EMSA; details: EMSA: 20-25 mM Tris-HCl pH 7.5, 20-150 mM NaCl, 0-0.2 mM EDTA, 0-5 mM DTT, 0-20% glycerol, 4 C, NCP197 EMSA: 10 mM Tris, 1 mM EDTA, 10 mM NaCl, 1 mM TCEP, FP: …
[5] = target: T1, MORF WH1 (Homo sapiens); assay: EMSA; details: His-tagged; EMSA: 20-25 mM Tris-HCl pH 7.5, 20-150 mM NaCl, 0-0.2 mM EDTA, 0-5 mM DTT, 0-20% glycerol, 4 C; NCP197 EMSA: 10 mM Tris, 1 mM EDTA, 10 mM NaCl, 1 mM TCEP; FP: …

Q: Which K half [1] does the source give for NCP207 here?
A: The K half was 0.3 µM.

Q: And the K half [2]?
A: Its K half is 7 nM.

Q: What about the K half ([3]; text says NCP187, source data and Methods say NCP207) of the same substance?
A: Its K half is 1400 nM.

Q: Which results are given for DNA147 (601 Widom)?
A: K half [1]: 15 µM; K half [2]: 62 nM

Q: C-DNA15 (15 bp C-rich) was tested. Which Kd [4] did it give?
A: The Kd was 18 µM.

Q: How did the Kd ([4]; source data name GST-MORF WH2) turn out when A-DNA15 (15 bp A-rich) was run?
A: The Kd was 7.8 µM.

Q: With CpG-DNA16 as the substance, how does the Kd [5] read?
A: Its Kd is 2 µM.

Q: With NCP147 as the substance, how does the K half [1] read?
A: The K half was 9 µM.

Q: What about the K half [2] of the same substance?
A: The K half was 12 nM.

Q: And the K half [3]?
A: The K half was 1000 nM.
